Numbering of substitutions follows the chain as printed. Values belong to the binder of their own block, whether it stands above or below them.
Columns and labels:
UCH37 = target: T1, UCH37; assay: SPR
T1 chain: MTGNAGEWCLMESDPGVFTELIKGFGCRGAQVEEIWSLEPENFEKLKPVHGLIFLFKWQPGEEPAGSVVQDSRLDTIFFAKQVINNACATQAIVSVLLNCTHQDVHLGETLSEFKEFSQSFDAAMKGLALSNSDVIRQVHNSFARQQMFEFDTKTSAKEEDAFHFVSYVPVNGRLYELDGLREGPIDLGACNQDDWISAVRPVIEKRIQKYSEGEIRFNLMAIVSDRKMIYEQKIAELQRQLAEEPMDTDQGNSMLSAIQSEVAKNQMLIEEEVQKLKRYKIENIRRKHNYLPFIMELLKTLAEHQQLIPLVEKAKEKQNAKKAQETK

UCH37•RPN13^DEUBAD = target: T2, UCH37•RPN13^DEUBAD (UniProt Q16186 253-407); assay: MST
T2 chain 1: T1 chain
T2 chain 2: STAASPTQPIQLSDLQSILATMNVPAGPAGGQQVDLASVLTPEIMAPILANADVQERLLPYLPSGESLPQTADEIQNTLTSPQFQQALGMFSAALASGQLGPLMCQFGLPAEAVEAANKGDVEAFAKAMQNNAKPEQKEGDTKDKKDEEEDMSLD

koff (UCH37): 3.9e-05 s⁻¹
B1: Nb-ncS1 (His-tagged) (VHH)
VHH: RVQLQESGGGLVQAGGSLRLSCAASGYIFRSYRMGWYRQAPGKERELVAAIGLGGNTYYADSVKGRFTISRDNAKNTVYQQMNSLKPEDTAVYYCAALYGKPPAFSPFPYWGQGTQVTVSS

koff (UCH37): 0.00013 s⁻¹
B2: Nb-v1 (recombinant) (VHH)
VHH: B1 VHH with R1Q, Q80L, Y99H, P109A

Kd (UCH37•RPN13^DEUBAD): 199 nM
B3: Nb-cS1 (His-tagged) (VHH)
VHH: QVQLQESGGGLVQAGGSLRLSCAASGYISRPRTMGWYRQAPGKEREFVAIISNGAITNYADSVKGRFTISRDNAKNTVYLQMNSLKPEDTAVYYCAAGRNIWHAYWGQGTQVTVSS

Source: doi:10.1101/2025.08.11.669711 (2025)
